Experimental data reported in the DeepSol protein solubility set.

Assay: soluble on expression in E. coli; label from the status in PepcDB or PDB records

Soluble on expression in E. coli, not soluble:
MGSDKIHHHHHHMDSSRSDPMRLMIFGAGYSGKAIGQHFIQQGIPVSGTTRSPAKAKALSDLGIEPLVFDGQRLSDEIIQAMACATHVVQSIAPGSDGDPLLRLTQGALKTWMPKVQWLAYLSTVGVYGDHQGAWVDEDTVCKPVSVRSKERVEAEQAWGRAALAAGVPLSTLRLSGIYGPGRNGLVNMAEGTARRLVKKDQVFNRIRVEDIAAATWFLAGRNEQGIFNITDHEPAPPQDVVAEAARLMEVEPPPEQAFETAELSPMARSFYGENKRVMNAKVRALGFAFAYPDYRVSLSQLWSSGRWRG
MGSDKIHHHHHHMDTAGMISAVQEILANRSLDGWEITAASSHILSIEVKEQKVDTFKCSAPLGVSVRVLKNGGMGFSFSTSMAPEDLARMVDNALVGAESQTPDADHGFPDPPAVYPDVPGLFDDGLAAVAEEAKIAVALDLERLTLAADPRVRKVRKATYGDSMVETMVVNSRGVSCRYRGTSVSASVTAVAEENGQSQMGWDFDFSSRFDGISVERIVAGAVAKATGLLGAATVPTMRCPAVLDTYVATEILEVLAPAFLAESVQKGKSLLAGKRGEMIVAPLLTIRDDGTLPGGMGTAPFDAEGVPKRNTVLVQNGRLDSYLYDTLRARKEGVAPTGNAIRSGIKSPPHMGVSNLFIENGTEAPEALLAGITRGVLLTEVMGMHTANTISGDFSVGAAGFLVEDGRVTRPVKGIAIAGNILELFRGVEAVGNDLRFYGTVGSPSLRIAALDVSGE
MGSDKIHHHHHHMDTIGRRLDMGKRIVLADPRGFCAGVDRAILTVRTILKSADTPRADGLPPVYVRRQIVHNKHVVEDLAAQGAVFVQELAEIPDAAAEAGIPIVFSAHGVSPAVKAEATARGMHVVDATCPLVSKVHREVLRFVKEGYEIIYIGHKGHDEAVGVVEESPEHVHLIEHASDVDSLDFQPDTKLVLLTQTTLSVDETAGTITALKARFPWLEMPPNSDICYATSNRQAAVKLVAEQADCVVIVGSANSSNSVRLMEVAQEGLSARYASKTAVGAAGRAHRVDDASELDPAWFEGVESVGISSGASVPDELVSGVVAALQELGYQDVSTIETIKENMHFVLPAELRK
MGSDKIHHHHHHMDTLNQIDISIIIPIYNVEKYLTVCIDSLKNQGGLRMEIILVNDGSTDLSGEIADEYAKKEERIKVIHQENGGASAARNVGLDIATEEYIAFLDSDDWIKDESLSLLYDEAVKHHADVVMGNMWLCHQDGSMDKPFKCISNGSIKELLSGKESFIELVKTCFYLPMPFKYIYNRKYLHKIQARFEEGIMHEDELWCPIVLCQAERMVITNIEFYYYRQNEESVMHTTSLARRLKSLFQVTEGLIKFSDQFVSSKTSVDLRSWWYVNILRLYSKAFTLLPNIKDSSYIVHKHYLDRFWRDCGQMIPESIQRCRNYYYKAEAGLKEYTDWRVSDWVAGVDCQIKAGKKVMLVFNTINGEDLQLKIEDVPVDWVITTDRKYFQQATIVVFHLPTLHYELENDQDKLEGQTWVSWHLESEKDDPGINDPEISELFDLLISDPQDSEGEQHPLLRLCRNYVNNG
MGSDKIHHHHHHMDVDLNELAGQFASGFLTVDGVYRTTLEAGRVLGHTRAYPTPKSGFLFALKGEASFVFNGTAYHLSPGKVVHGGKNMELIVKVGPAAFEYCLIHYTLHTRSNHPNDTDSHFLLEPGENLAITEKLDLLHRIKSTPGNFPEIQAKALFYTIFHDMLICARNRLNRESQLVIEQVVEYIHHHYMEPMTVKKLADMSGMGVKPFSYLFKKYIGMFPIDYLIQYRLKRAKNLLVSSNSSIADIAESIGYLDALYFSRLFKKHIGCSPTAFRAQMGNCPSDDQ
MGSDKIHHHHHHMDVIKQIQQAIVYIEDRLLEPFNLQELSDYVGLSPYHLDQSFKMIVGLSPEAYARARKMTLAANDVINGATRLVDIAKKYHYANSNDFANDFSDFHGVSPIQASTKKDELQIQERLYIKLSTTERAPYPYRLEETDDISLVGYARFIDTKYLSHPFNVPDFLEDLLIDGKIKELRRYNDVSPFELFVISCPLENGLEIFVGVPSERYPAHLESRFLPGKHCAKFNLQGEIDYATNEAWYYIESSLQLTLPYERNDLYVEVYPLDISFNDPFTKIQLWIPVKQSPYDED
MGSDKIHHHHHHMDVLRCENLKKRFGRRYVVNGVNLEFHRGEIVGLLGPNGAGKTTIFNMILGVVVPTSGKIIFRDVDITKFPVYRRARLGITYLQQETSIFGGLTVRENIDLVLRFHEKDKEKRERKIEELLHEFHLKHLENQPASFLSGGEKRKLELARMMCLNPAFILLDEPFSGIDPKTVKEIQKMTLELKQKNFGIVITDHNVDELVEIADRIYVIYKGEILAEGSPERILEDETVREVYLGT
